{
  "source": "paper PMC11696893",
  "about": "“Enzymatic synthesis of reactive RNA probes containing squaramate-linked cytidine or adenosine for bioconjugations and cross-linking with lysine-containing peptides and proteins”",
  "key": {"YFV NS5": {"target": "YFV NS5 (Yellow fever virus, UniProt P03314 2507-3411)", "assay": "EMSA", "settings": "protein: recombinant; label: radioactive"}, "[1]": {"target": "SARS-CoV-2 nucleoprotein (SC_NP) (SARS-CoV-2, UniProt P0DTC9 1-419)", "assay": "EMSA", "settings": "protein: recombinant; chain copies: 2; label: radioactive"}, "JEV NS5": {"target": "JEV NS5 (Japanese encephalitis virus, UniProt P27395 2528-3432)", "assay": "EMSA", "settings": "protein: recombinant; label: radioactive"}, "T7 RNA polymerase": {"target": "T7 RNA polymerase (bacteriophage T7, UniProt P00573 1-883)", "settings": "label: radioactive"}, "[2]": {"target": "HIV reverse transcriptase (HIV-rt) (HIV, UniProt P04585;P04585 588-1147;588-1027)", "settings": "protein: recombinant; copies: 1;1; label: radioactive"}},
  "data": [
    {"binder": "GAUACUAAGGGAAUAAAUUGAGAGAGAUAAAUUUAU (ssRNA, C5 = 5-(ethoxysquaramate-linked) cytidine (CESQ))", "note": "[36_vRNA_1gCESQ]", "values": [
      {"measurement": "binding result", "setting": "YFV NS5", "result": "binds"},
      {"measurement": "binding result", "setting": "[1]", "result": "binds"},
      {"measurement": "binding result", "setting": "JEV NS5", "result": "binds"},
      {"measurement": "binding result", "setting": "T7 RNA polymerase", "result": "no binding"},
      {"measurement": "binding result", "setting": "[2]", "result": "binds"}
    ]}
  ]
}
